These results are taken from patent US20240069033A1, “METHOD FOR SCREENING FOR CANDIDATE MOLECULE CAPABLE OF FORMING COMPLEX IN CONJUNCTION WITH PLURALITY OF TARGET MOLECULES” (Chugai Seiyaku Kabushiki Kaisha, priority 2020, published 2024).

The target of test [1] is biotinylated GFP1-9. The experiment in a line: mRNA display pull-down with biotinylated GFP1-9, qPCR; corrected with the display efficiency. (In general: In qPCR the cycle at which signal appears reflects the starting amount.)
The target in test [2] is biotinylated GFP1-9. The experiment in a line: mRNA display pull-down: 0.42 µM Display molecule with 1 µM biotinylated GFP1-9, streptavidin beads, TEV elution, qPCR.
Test [3] deals with biotinylated GFP1-9. The experiment in a line: cell-based or functional assay.
The target of a further test is GFP10-Link12-FRB-His×6. The experiment in a line: cell-based or functional assay.
GFP10-Link12-FRB-His×6, sequence (chain, as listed by the source limits assumed): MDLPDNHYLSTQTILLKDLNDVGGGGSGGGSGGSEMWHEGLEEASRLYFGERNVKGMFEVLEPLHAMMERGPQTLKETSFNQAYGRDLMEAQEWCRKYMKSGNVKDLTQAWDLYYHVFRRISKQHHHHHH
Test [4] has as its target anti-ubiquitin antibody (Mouse IgG1 monoclonal antibody; clone name FK2). The test is described as follows: mRNA display pull-down on anti-ubiquitin antibody (FK2) magnetic beads, qPCR; 1:1 mixture; corrected with the display efficiency.
The target is the same in test [5]. The experiment in a line: mRNA display pull-down on anti-ubiquitin antibody (FK2) magnetic beads, qPCR; 1:1 mixture of the two display molecules.
Test [6] has the same target. The test is described as follows: mRNA display pull-down on anti-ubiquitin antibody (FK2) magnetic beads, heat elution, qPCR.
The target is the same in test [7]. The experiment in a line: mRNA display pull-down on anti-ubiquitin antibody (FK2) magnetic beads, qPCR; corrected with the display efficiency.
Test [8] has the same target. The test is described as follows: mRNA display pull-down on anti-ubiquitin antibody (FK2) magnetic beads, qPCR.

GFP10-11 fusion peptide (peptide; modification not given; biotinylated at the Avi tag (co-expression with BirA)), sequence (chain, as listed by the source): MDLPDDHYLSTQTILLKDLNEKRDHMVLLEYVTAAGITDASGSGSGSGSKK
His×6-FKBP12-Link12-GFP11, sequence (chain): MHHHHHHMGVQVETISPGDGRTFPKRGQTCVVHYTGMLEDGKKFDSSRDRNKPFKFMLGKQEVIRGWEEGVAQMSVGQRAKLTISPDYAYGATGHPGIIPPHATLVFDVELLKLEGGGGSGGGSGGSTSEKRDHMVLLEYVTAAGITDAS
GFP10-Link12-FRB-His×6, sequence (chain): as the sequence (chain, as listed by the source limits assumed) above

In the test with biotinylated GFP1-9 [1], “GFP10-11 fusion peptide (peptide; modification not given; biotinylated at the Avi tag (co-expression with BirA))” registered a Recovery rate (%) of 23.4%. Further, in the test with biotinylated GFP1-9 [2], the Apparent recovery rate (%) is 13.1% and the Recovered nucleic acid amount (molecules) came out at 1.31e+11 molecules.

In the test with biotinylated GFP1-9 [3], GFP10-Link12-FRB-His×6 displayed a Recovered nucleic acid amount (molecules) of compound nk06 by pull-down with biotinylated GFP1-9; Condition 4, FKBP12-GFP11 absent of 2.24e+08 molecules and a Recovery rate (%) of compound nk06 by pull-down with biotinylated GFP1-9; Condition 4, FKBP12-GFP11 absent of 0.055%.

In the test with biotinylated GFP1-9 [3], His×6-FKBP12-Link12-GFP11 came in with a Recovered nucleic acid amount (molecules) of compound nk06 by pull-down with biotinylated GFP1-9; Condition 3, GFP10-FRB absent of 8.21e+08 molecules and a Recovery rate (%) of compound nk06 by pull-down with biotinylated GFP1-9; Condition 3, GFP10-FRB absent of 0.202%. For the same substance, in the test with GFP10-Link12-FRB-His×6, the Recovered nucleic acid amount (molecules) of compound nk06 (rapamycin-nucleic acid) by pull-down with biotinylated GFP1-9; Condition 1, all three proteins at 1 µM amounted to 3.5e+10 molecules and the Recovery rate (%) of compound nk06 (rapamycin-nucleic acid) by pull-down with biotinylated GFP1-9; Condition 1, all three proteins at 1 µM is 8.62%.

Consider splitUb (N) + splitUb (C), for which the Recovery rate (%) in [4] was found to be 0.344%. For the same substance, in test [5], the Apparent recovery rate (%) is 0.194% and the Recovered nucleic acid amount (molecules) was determined as 7.16e+09 molecules.

Regarding splitUb(C) (peptide), in test [6], the Apparent recovery rate (%) stood at 0.571% and the Recovered nucleic acid amount (molecules) came to 1.16e+10 molecules. In addition, the Recovery rate (%) in test [7] came to 1.01%.

In turn, splitUb(N-C) yielded a fold higher recovery rate than the other controls in test [8] greater than 16 times. Besides, in [6], the Apparent recovery rate (%) was found to be 12.3% and the Recovered nucleic acid amount (molecules) is 6.69e+10 molecules. In [7], this substance had a Recovery rate (%) of 16.1%.
